Data reported in patent EP2468776.

Target: T1, Slit2-His (UniProt O94813)
T1 chain: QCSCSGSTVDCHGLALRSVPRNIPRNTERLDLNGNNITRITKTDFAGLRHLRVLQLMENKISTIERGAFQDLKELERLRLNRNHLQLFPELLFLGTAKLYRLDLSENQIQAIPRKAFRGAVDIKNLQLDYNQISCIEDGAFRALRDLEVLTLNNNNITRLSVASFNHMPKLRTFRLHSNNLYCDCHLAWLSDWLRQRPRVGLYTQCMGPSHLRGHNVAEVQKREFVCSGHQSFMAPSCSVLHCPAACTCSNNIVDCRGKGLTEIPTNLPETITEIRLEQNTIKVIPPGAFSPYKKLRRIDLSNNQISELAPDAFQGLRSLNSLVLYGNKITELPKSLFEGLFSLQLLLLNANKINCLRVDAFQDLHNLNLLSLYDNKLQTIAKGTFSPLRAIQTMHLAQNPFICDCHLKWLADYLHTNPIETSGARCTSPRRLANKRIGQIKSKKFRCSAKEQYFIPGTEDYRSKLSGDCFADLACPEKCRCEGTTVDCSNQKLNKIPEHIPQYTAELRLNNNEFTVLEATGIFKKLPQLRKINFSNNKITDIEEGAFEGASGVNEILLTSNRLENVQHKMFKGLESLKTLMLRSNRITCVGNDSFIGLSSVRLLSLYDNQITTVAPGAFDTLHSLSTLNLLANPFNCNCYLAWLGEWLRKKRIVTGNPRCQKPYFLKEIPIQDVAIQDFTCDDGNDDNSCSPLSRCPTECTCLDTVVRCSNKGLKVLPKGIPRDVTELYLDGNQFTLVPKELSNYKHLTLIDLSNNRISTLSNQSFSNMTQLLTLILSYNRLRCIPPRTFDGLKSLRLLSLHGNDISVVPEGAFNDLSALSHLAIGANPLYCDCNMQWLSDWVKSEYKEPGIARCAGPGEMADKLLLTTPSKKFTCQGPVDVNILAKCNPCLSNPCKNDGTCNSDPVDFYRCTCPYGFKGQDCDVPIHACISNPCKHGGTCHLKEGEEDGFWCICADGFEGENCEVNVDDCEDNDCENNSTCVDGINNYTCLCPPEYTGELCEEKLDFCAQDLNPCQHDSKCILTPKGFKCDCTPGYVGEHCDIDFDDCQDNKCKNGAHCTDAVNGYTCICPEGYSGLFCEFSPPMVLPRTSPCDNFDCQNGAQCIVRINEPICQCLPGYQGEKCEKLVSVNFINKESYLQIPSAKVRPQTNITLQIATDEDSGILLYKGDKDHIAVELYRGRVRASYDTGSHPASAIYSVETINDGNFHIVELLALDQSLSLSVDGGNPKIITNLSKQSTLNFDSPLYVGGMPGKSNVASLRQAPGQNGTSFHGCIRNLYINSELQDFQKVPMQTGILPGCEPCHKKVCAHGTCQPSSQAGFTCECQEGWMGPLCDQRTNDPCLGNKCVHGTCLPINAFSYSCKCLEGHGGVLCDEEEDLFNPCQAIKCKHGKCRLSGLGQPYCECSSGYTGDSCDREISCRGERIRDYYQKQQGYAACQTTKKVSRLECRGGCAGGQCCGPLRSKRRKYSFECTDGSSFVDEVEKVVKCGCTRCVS
Experiment: SPR

B1: Robo4-Fc (protein)
chain: QDSPPQILVHPQDQLFQGPGPARMSCQASGQPPPTIRWLLNGQPLSMVPPDPHHLLPDGTLLLLQPPARGHAHDGQALSTDLGVYTCEASNRLGTAVSRGARLSVAVLREDFQIQPRDMVAVVGEQFTLECGPPWGHPEPTVSWWKDGKPLALQPGRHTVSGGSLLMARAEKSDEGTYMCVATNSAGHRESRAARVSIQEPQDYTEPVELLAVRIQLENVTLLNPDPAEGPKPRPAVWLSWKVSGPAAPAQSYTALFRTQTAPGGQGAPWAEELLAGWQSAELGGLHWGQDYEFKVRPSSGRARGPDSNVLLLRLPEKVPSAPPQEVTLKPGNGTVFVSWVPPPAENHNGIIRGYQVWSLGNTSLPPANWTVVGEQTQLEIATHMPGSYCVQVAAVTGAGAGEPSRPVCLLLEQAMERATQEPSEHGPWTLEQLRATLKRPEVIATCGVALWLLLLGTAVCIHRRRRARVHLGPGLYRYTSEDAILKHRMDHSDSQWLADTWRSTSGSRDLSSSSSLSSRLGADARDPLDCRRSLLSWDSRSPGVPLLPDTSTFYGSLIAELPSSTPARPSPQVPAVRRLPPQLAQLSSPCSSSDSLCSRRGLSSPRLSLAPAEAWKAKKKQELQHANSSPLLRGSHSLELRACELGNRGSKNLSQSPGAVPQALVAWRALGPKLLSSSNELVTRHLPPAPLFPHETPPTQSQQTQPPVAPQAPSSILLPAAPIPILSPCSPPSPQASSLSGPSPASSRLSSSSLSSLGEDQDSVLTPEEVALCLELSEGEETPRNSVSPMPRAPSPPTTYGYISVPTASEFTDMGRTGGGVGPKGGVLLCPPRPCLTPTPSEGSLANGWGSASEDNAASARASLVSSSDGSFLADAHFARALAVAVDSFGFGLEPREADCVFIDASSPPSPRDEIFLTPNLSLPLWEWRPDWLEDMEVSHTQRLGRGMPPWPPDSQISSQRSQLHCRMPKAGASPVDYS
binding result: no binding
